Reference: article PMC5794333, “Identification of osmoadaptive strategies in the halophile, heterotrophic ciliate Schmidingerothrix salinarum” (PLoS Biology, 2018)

B1: ICDHE.coli (Escherichia coli K-12) (protein)
chain: MESKVVVPAQGKKITLQNGKLNVPENPIIPYIEGDGIGVDVTPAMLKVVDAAVEKAYKGERKISWMEIYTGEKSTQVYGQDVWLPAETLDLIREYRVAIKGPLTTPVGGGIRSLNVALRQELDLYICLRPVRYYQGTPSPVKHPELTDMVIFRENSEDIYAGIEWKADSADAEKVIKFLREEMGVKKIRFPEHCGIGIKPCSEEGTKRLVRAAIEYAIANDRDSVTLVHKGNIMKFTEGAFKDWGYQLAREEFGGELIDGGPWLKVKNPNTGKEIVIKDVIADAFLQQILLRPAEYDVIACMNLNGDYISDALAAQVGGIGIAPGANIGDECALFEATHGTAPKYAGQDKVNPGSIILSAEMMLRHMGWTEAADLIVKGMEGAINAKTVTYDFERLMDGAKLLKCSEFGDAIIENM
notes: N-terminal His-tag, cloned from genomic DNA into pETDuet-1, E. coli BL21; Ni-NTA
B2: MDHE.coli (Escherichia coli K-12) (protein)
chain: MKVAVLGAAGGIGQALALLLKTQLPSGSELSLYDIAPVTPGVAVDLSHIPTAVKIKGFSGEDATPALEGADVVLISAGVARKPGMDRSDLFNVNAGIVKNLVQQVAKTCPKACIGIITNPVNTTVAIAAEVLKKAGVYDKNKLFGVTTLDIIRSNTFVAELKGKQPGEVEVPVIGGHSGVTILPLLSQVPGVSFTEQEVADLTKRIQNAGTEVVEAKAGGGSATLSMGQAAARFGLSLVRALQGEQGVVECAYVEGDGQYARFFSQPLLLGKNGVEERKSIGTLSAFEQNALEGMLDTLKKDIALGEEFVNK

Columns and labels:
purified protein [1] = substrate: O=C(O)CC(C(=O)O)C(O)C(=O)O; assay: purified protein; type: biochemical, Escherichia coli; conditions: 0.05 M NaCl, 0.8 mM NADP+, 1 mM MgCl2, 32.5 mM Tris/HCl pH 7.5, concentration as DL-isocitrate
purified protein [2] = substrate: O=C(O)CC(=O)C(=O)O; assay: purified protein; conditions: 0.05 M NaCl, 0.3 mM NADH, 32.5 mM Tris/HCl pH 7.5

| Protein | Km (purified protein [1]) | Vmax (purified protein [1]) | Km (purified protein [2]) | Vmax (purified protein [2]) |
| --- | --- | --- | --- | --- |
| B1 | 21 µM | 46 µmol/min/mg |  |  |
| B2 |  |  | 22 µM | 1490 µmol/min/mg |
